The target in assay [1] is T1, human amylin receptor (human, UniProt P30988 25-474; O60896 24-148, limits assumed).
T1 construct: whole, on cells; Used as cell membranes prepared from the Amylin 3(a)/CRE-luc BHK cells (Assay V); also called hAmylin-R; hAmylinR
T1 sequence (looked up) 1: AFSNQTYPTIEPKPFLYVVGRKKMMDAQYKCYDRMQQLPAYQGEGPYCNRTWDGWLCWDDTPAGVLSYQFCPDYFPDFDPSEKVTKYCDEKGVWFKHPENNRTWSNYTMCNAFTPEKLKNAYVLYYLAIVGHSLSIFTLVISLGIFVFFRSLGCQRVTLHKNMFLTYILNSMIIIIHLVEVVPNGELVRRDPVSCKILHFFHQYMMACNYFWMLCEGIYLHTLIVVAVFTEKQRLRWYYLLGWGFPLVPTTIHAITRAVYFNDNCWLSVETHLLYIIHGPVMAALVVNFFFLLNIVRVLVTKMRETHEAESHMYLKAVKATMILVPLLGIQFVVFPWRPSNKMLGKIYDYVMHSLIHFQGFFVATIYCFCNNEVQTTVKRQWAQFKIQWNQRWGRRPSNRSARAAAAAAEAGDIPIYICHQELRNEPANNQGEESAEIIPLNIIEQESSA
T1 sequence (looked up) 2: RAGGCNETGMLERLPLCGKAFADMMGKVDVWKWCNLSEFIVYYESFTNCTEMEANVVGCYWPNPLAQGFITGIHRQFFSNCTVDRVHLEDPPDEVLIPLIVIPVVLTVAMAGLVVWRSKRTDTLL
In words: SPA competition vs 125I-rat amylin, membranes of amylin 3(a) receptor BHK cells (Assay V). Put shortly: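 One-site competition analysis of SPA counts yielded IC₅₀ as a measure of affinity. Membranes were at 35 ng/μL final; incubation was 120 min at 25° C, pH 7.4.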

Assay [2] addresses T2, human calcitonin receptor (human, UniProt P30988 25-474).
T2 sequence (looked up): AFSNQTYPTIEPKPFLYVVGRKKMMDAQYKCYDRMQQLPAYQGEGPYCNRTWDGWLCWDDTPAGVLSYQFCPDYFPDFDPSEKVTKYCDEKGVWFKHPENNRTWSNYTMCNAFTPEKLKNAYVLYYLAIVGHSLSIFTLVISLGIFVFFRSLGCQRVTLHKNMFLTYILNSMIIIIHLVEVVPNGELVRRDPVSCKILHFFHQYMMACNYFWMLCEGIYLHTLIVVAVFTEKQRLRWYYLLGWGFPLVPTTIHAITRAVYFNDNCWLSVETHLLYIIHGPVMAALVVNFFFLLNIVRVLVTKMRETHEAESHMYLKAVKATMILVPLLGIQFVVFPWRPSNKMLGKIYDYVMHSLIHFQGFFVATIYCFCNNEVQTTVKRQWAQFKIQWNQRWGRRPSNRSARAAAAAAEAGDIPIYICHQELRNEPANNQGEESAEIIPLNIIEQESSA
The experiment in a line: cell-based or functional assay.

Assay [3] addresses T3, human amylin receptor (amylin 3(a) receptor: human calcitonin receptor with RAMP-3) (human, UniProt P30988 25-474; O60896 24-148, limits assumed).
T3 construct: whole, on cells; Whole cells in the luciferase assay (Assay II a); also called hAmylin-R; hAmylinR
T3 sequence (looked up) 1: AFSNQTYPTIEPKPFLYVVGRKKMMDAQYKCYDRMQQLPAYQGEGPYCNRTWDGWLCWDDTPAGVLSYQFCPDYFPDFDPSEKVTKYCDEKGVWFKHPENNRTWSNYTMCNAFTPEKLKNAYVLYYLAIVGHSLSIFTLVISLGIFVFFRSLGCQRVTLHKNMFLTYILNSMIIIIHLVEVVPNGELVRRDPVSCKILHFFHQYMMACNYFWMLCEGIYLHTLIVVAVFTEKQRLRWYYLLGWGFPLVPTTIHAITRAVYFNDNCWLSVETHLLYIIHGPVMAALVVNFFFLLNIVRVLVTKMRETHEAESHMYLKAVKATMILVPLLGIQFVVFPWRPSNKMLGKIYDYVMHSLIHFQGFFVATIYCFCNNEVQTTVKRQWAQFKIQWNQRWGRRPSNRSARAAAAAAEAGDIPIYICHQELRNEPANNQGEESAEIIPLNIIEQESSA
T3 sequence (looked up) 2: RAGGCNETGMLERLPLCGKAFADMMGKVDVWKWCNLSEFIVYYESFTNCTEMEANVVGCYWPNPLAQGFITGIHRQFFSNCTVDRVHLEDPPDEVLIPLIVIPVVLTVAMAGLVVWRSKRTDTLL
The experiment in a line: SPA competition binding on membranes of BHK cells with human calcitonin receptor + RAMP-3; displacement of 125I-rat amylin (Assay V). Here is the method: The binding assay was performed using scintillation proximity assay (SPA) beads (RPNQ0001) from PerkinElmer and cell membranes from the Amylin 3(a)/CRE-luc cells (as described in Assay (II)) were used. Membranes were prepared in the following way; the cells were rinsed with PBS and incubated with Versene for approximately 5 min before harvesting. The cells were flushed with PBS and the cell-suspension was centrifuged for 5 min at 1000 rpm. Cells were homogenized (ultrathurrax) in a buffer containing 20 mM Na-HEPES and 10 mM EDTA (pH 7.4) and centrifuged at 20.000 rpm for 15 min. The resulting pellet was resuspended, homogenized and centrifuged (20.000 rpm, 15 min) in a buffer containing 20 mM Na-HEPES and 0.1 mM EDTA (pH 7.4, buffer 2). The resulting pellet was resuspended in buffer 2 and protein concentration was measured (BCA protein Assay, Pierce). The homogenate was kept cold during the whole procedure. The membranes were kept at −80° C. until use. The assay was performed in a 384 well Optiplate (PerkinElmer) in a total volume of 40 ul. Membranes were mixed with SPA beads. Final concentration of membranes 35 ng/μL final and SPA beads was 0.05 mg/well. Test-compounds were dissolved in DMSO and further diluted in assay buffer (50 mM Hepes, pH 7.4, 1 mM CaCl2, 5 mM MgCl₂, 0.1% OA and 0.02% Tween20). […] The final mixture was incubated with shaking at 400 rpm for 120 min at 25° C. prior to centrifugation (1500 rpm, 10 min). Samples were analyzed on TopCounter™ (Packard). The IC₅₀ was calculated using (one site binding competition analysis) GraphPad Prism5 as a measure of receptor affinity.
(In general: In a radioligand displacement assay an active substance lowers the binding of a labelled ligand.)

Numbered stars: 1 amine (or outer) side, 2 acyl side, 3 side chain; on linkers, the order of the positions; unused ones are H or OH. Bridge positions count the residues as written; N and C are the ends. Side chains are listed from the residue outwards. Ends that are not written are not given here. * marks the point of attachment. C20 diacid = O=C(O)CCCCCCCCCCCCCCCCCCC(=O)*; γGlu = O=C(O)[C@H](CCC(=O)[*:2])N[*:1]; AEEA = NCCOCCOCC(=O)O

B1: N^ε-[(4S)-4-carboxy-4-(19-carboxynonadecanoylamino)butanoyl]Lys[Arg1,Arg17,Pro21,Pro27,His35]-h-amylin (peptide)
peptide: K([γGlu-C20 diacid])RCNTATCATQRLANFLRHSSPNFGAIPSSTNVGSHTY-NH2
modifications: disulfide 3-8; N-terminus assumed
SMILES: CC[C@H](C)[C@H](NC(=O)[C@H](C)NC(=O)CNC(=O)[C@H](Cc1ccccc1)NC(=O)[C@H](CC(N)=O)NC(=O)[C@@H]1CCCN1C(=O)[C@H](CO)NC(=O)[C@H](CO)NC(=O)[C@H](Cc1c[nH]cn1)NC(=O)[C@H](CCCNC(=N)N)NC(=O)[C@H](CC(C)C)NC(=O)[C@H](Cc1ccccc1)NC(=O)[C@H](CC(N)=O)NC(=O)[C@H](C)NC(=O)[C@H](CC(C)C)NC(=O)[C@H](CCCNC(=N)N)NC(=O)[C@H](CCC(N)=O)NC(=O)[C@@H](NC(=O)[C@H](C)NC(=O)[C@@H]1CSSC[C@H](NC(=O)[C@H](CCCNC(=N)N)NC(=O)[C@@H](N)CCCCNC(=O)CC[C@H](NC(=O)CCCCCCCCCCCCCCCCCCC(=O)O)C(=O)O)C(=O)N[C@@H](CC(N)=O)C(=O)N[C@@H]([C@@H](C)O)C(=O)N[C@@H](C)C(=O)N[C@@H]([C@@H](C)O)C(=O)N1)[C@@H](C)O)C(=O)N1CCC[C@H]1C(=O)N[C@@H](CO)C(=O)N[C@@H](CO)C(=O)N[C@H](C(=O)N[C@@H](CC(N)=O)C(=O)N[C@H](C(=O)NCC(=O)N[C@@H](CO)C(=O)N[C@@H](Cc1c[nH]cn1)C(=O)N[C@H](C(=O)N[C@@H](Cc1ccc(O)cc1)C(N)=O)[C@@H](C)O)C(C)C)[C@@H](C)O
notes: also called compound 44
Broadly, the IC50 is the concentration that inhibits the measured activity by half. In assay [1], B1 had an IC50 of 275 pM. In assay [1], {C20 diacid-γGlu}-GRCNTATCATQRLAAFLRHSSPNFGAIPSSTNVGPNTY-NH2 (disulfide 3-8) gave an IC50 of 114 pM.

B2: N^α1-[2-[2-[2-[[2-[2-[2-[[(4S)-4-carboxy-4-(19-carboxynonadecanoylamino)butanoyl]amino]ethoxy]ethoxy]acetyl]amino]ethoxy]ethoxy]acetyl]-[Glu14,Arg17,Pro21,Pro27 … (peptide)
peptide: {C20 diacid-γGlu-AEEA-AEEA}-KCNTATCATQRLAEFLRHSSPNFGAIPSSTNVGSNTP-NH2
modifications: disulfide 2-7
SMILES: CC[C@H](C)[C@H](NC(=O)[C@H](C)NC(=O)CNC(=O)[C@H](Cc1ccccc1)NC(=O)[C@H](CC(N)=O)NC(=O)[C@@H]1CCCN1C(=O)[C@H](CO)NC(=O)[C@H](CO)NC(=O)[C@H](Cc1c[nH]cn1)NC(=O)[C@H](CCCNC(=N)N)NC(=O)[C@H](CC(C)C)NC(=O)[C@H](Cc1ccccc1)NC(=O)[C@H](CCC(=O)O)NC(=O)[C@H](C)NC(=O)[C@H](CC(C)C)NC(=O)[C@H](CCCNC(=N)N)NC(=O)[C@H](CCC(N)=O)NC(=O)[C@@H](NC(=O)[C@H](C)NC(=O)[C@@H]1CSSC[C@H](NC(=O)[C@H](CCCCN)NC(=O)COCCOCCNC(=O)COCCOCCNC(=O)CC[C@H](NC(=O)CCCCCCCCCCCCCCCCCCC(=O)O)C(=O)O)C(=O)N[C@@H](CC(N)=O)C(=O)N[C@@H]([C@@H](C)O)C(=O)N[C@@H](C)C(=O)N[C@@H]([C@@H](C)O)C(=O)N1)[C@@H](C)O)C(=O)N1CCC[C@H]1C(=O)N[C@@H](CO)C(=O)N[C@@H](CO)C(=O)N[C@H](C(=O)N[C@@H](CC(N)=O)C(=O)N[C@H](C(=O)NCC(=O)N[C@@H](CO)C(=O)N[C@@H](CC(N)=O)C(=O)N[C@H](C(=O)N1CCC[C@H]1C(N)=O)[C@@H](C)O)C(C)C)[C@@H](C)O
notes: also called compound 20
In the case of B2, the “Ratio hCT/hAmylin funct.” value in assay [2] came out at 3.6 ratio. Further, the IC50 in assay [3] is 217 pM.

Source of the values: patent publication US20140087995A1 (published 2014).
